The text below walks through data of patent US20120077957A1 (PALATIN TECHNOLOGIES, published 2012).

Assay [1] has as its target T1, human melanocortin-4 receptor (recombinant hMC4-R) (human, UniProt P32245 1-332). The assay can be described thus: cell-based or functional assay.
Assay [2] addresses T1, human melanocortin-4 receptor …. The assay can be described thus: competition with labelled NDP-α-MSH ([I125] or Eu), hMC4-R HEK-293 membranes. How it is done:
(§1) After incubation for 60 minutes at 37° C., the assay mixture was filtered and the membranes washed three times with ice-cold buffer. Filters were dried and counted in a gamma counter for bound radioactivity. […] Maximal specific binding (100%) was defined as the difference in radioactivity (cpm) bound to cell membranes in the absence and presence of 1 μM NDP-α-MSH. […] Ki values for test peptides of the present invention were determined using Graph-Pad Prism® curve-fitting software.
(§2) After incubation for 90 minutes at 37° C., the reaction was stopped by filtration over AcroWell 96-well filter plates (Pall Life Sciences). The filter plates were washed 4 times with 200 μL of ice-cold phosphate-buffered saline. DELFIA Enhancement solution (PerkinElmer Life Sciences) was added to each well. The plates were incubated on a shaker for 15 minutes and read at 340 nm excitation and 615 nm emission wavelengths. Each assay was conducted in duplicate and mean values were utilized. Ki values were determined by curve-fitting with Graph-Pad Prism® software using a one-site fixed-slope competition binding model.

Assay [3] shares this target. The assay is described as follows: cell-based or functional assay. This is another data set of the same source.
Assay [4] shares this target. The assay can be described thus: competition with labelled NDP-α-MSH ([I125] or Eu), hMC4-R HEK-293 membranes. How it is done: as §1, §2
The source holds these as a separate data set.

Where two headings read alike, the source gives them in different places. Numbered stars: 1 amine (or outer) side, 2 acyl side, 3 side chain; on linkers, the order of the positions; unused ones are H or OH. Bridge positions count the residues as written; N and C are the ends. Square brackets hold non-standard residues; d marks the D form. * marks the point of attachment. Ser(Bzl) = O-benzyl-serine, O=C([C@H](COCc1ccccc1)N[*:1])[*:2]; Pro(trans-4-NH2) = O=C([C@@H]1C[C@@H](N[*:3])CN1[*:1])[*:2]; Nle = CCCC[C@H](N)C(=O)O; Orn = NCCC[C@H](N)C(=O)O; Bn = c1ccc(C*)cc1

T1 sequence (P32245 whole entry): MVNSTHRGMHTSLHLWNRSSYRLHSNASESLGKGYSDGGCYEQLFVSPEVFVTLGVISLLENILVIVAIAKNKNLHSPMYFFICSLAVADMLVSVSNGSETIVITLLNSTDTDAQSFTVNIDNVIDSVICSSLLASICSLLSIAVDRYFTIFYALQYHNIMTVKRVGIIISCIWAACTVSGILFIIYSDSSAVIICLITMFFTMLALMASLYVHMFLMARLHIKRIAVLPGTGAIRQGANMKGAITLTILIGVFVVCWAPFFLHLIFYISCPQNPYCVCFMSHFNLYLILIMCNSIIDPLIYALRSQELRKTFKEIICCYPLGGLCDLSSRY

For Ac-[Nle][Orn]H[dF]RWE-OH (lactam 2-7) [Peptide No. 35: Ac-Nle-cyclo(Orn-His-D-Phe-Arg-Trp-Glu)-OH], in assay [1], the “Emax (%), cAMP” value was 97%. Also, the Ki in assay [2] came to 1 nM.

Regarding Ac-R[Orn]H[dF]RWE-NH2 (lactam 2-7) [Peptide No. 38: Ac-Arg-cyclo(Orn-His-D-Phe-Arg-Trp-Glu)-NH2], in assay [1], the “Ec50 (nM), cAMP” value is 1 nM and the “Emax (%), cAMP” value was determined as 84%. Also, the Ki in assay [2] is 1 nM.

For Ac-REH[dF]RW[Orn]-OH (lactam 2-7) [Peptide No. 3: Ac-Arg-cyclo(Glu-His-D-Phe-Arg-Trp-Orn)-OH], in assay [3], the “Ec50 (nM), cAMP” value was 0.7 nM and the “Emax (%), cAMP” value was 83%. Moreover, the Ki in assay [4] turned out to be 24 nM.

In the case of Ac-REN[dF]RW[Orn]-OH (lactam 2-7) [Peptide No. 20: Ac-Arg-cyclo(Glu-Asn-D-Phe-Arg-Trp-Orn)-OH], in assay [3], the “Ec50 (nM), cAMP” value stood at 12 nM and the “Emax (%), cAMP” value is 76%. In assay [4], the Ki is 167 nM.

With Ac-REK[dF]RW[Orn]-NH2 (lactam 2-7) [Peptide No. 16: Ac-Arg-cyclo(Glu-Lys-D-Phe-Arg-Trp-Orn)-NH2], the “Emax (%), cAMP” value in assay [3] was 104%. The Ki in assay [4] was 15 nM.

As to Ac-RE[Ser(Bzl)][dF]RW[Orn]-OH (lactam 2-7) [Peptide No. 17: Ac-Arg-cyclo(Glu-Ser(Bzl)-D-Phe-Arg-Trp-Orn)-OH], the “Emax (%), cAMP” value in assay [3] was found to be 55%. In addition, the Ki in assay [4] was 6 nM.

As for Ac-REH[dF]RW[Orn]-NH2 (lactam 2-7) [Peptide No. 4: Ac-Arg-cyclo(Glu-His-D-Phe-Arg-Trp-Orn)-NH2], in assay [3], the “Ec50 (nM), cAMP” value was determined as 0.2 nM and the “Emax (%), cAMP” value came out at 83%. Further, the inhibition constant (Ki) in assay [4] worked out at 1 nM.

Consider Ac-REN[dF]RW[Orn]-NH2 (lactam 2-7) [Peptide No. 34: Ac-Arg-cyclo(Glu-Asn-D-Phe-Arg-Trp-Orn)-NH2], for which, in assay [3], the “Ec50 (nM), cAMP” value is 0.4 nM and the “Emax (%), cAMP” value is 91%. Further, in assay [4], the Ki was 6 nM.

Take Ac-RE[Pro(trans-4-NH2)][dF]RW[Orn]-NH2 (lactam 2-7) [Peptide No. 32: Ac-Arg-cyclo(Glu-Pro(4R-NH2)-D-Phe-Arg-Trp-Orn)-NH2]: the “Emax (%), cAMP” value in assay [3] is 55%. The Ki in assay [4] was found to be 6 nM.

B1: Peptide No. 2: Ac-Nle-cyclo(Glu-His-D-Phe-Arg-Trp-Orn)-NH2 (peptide)
peptide: XEHFRWX
modifications: N-terminal acetyl; Nle at 1; D-Phe at 4; Orn at 7; side-chain lactam Glu2-Orn7; C-terminal amide (-NH2)
Regarding B1, in assay [3], the “Ec50 (nM), cAMP” value is 0.1 nM and the “Emax (%), cAMP” value stood at 93%. For the same molecule, the Ki in assay [4] worked out at 0.1 nM.

Turning to Ac-[Nle][Orn]H[dF]RWE-NH2 (lactam 2-7) [Peptide No. 36: Ac-Nle-cyclo(Orn-His-D-Phe-Arg-Trp-Glu)-NH2], in assay [1], the “Ec50 (nM), cAMP” value stood at 0.2 nM and the “Emax (%), cAMP” value worked out at 85%. The Ki in assay [2] was 0.2 nM.

Take Ac-RE[Orn](Ac)[dF]RW[Orn]-NH2 (lactam 2-7) [Peptide No. 33: Ac-Arg-cyclo(Glu-Orn(Acetyl)-D-Phe-Arg-Trp-Orn)-NH2]: in assay [3], the “Ec50 (nM), cAMP” value turned out to be 3 nM and the “Emax (%), cAMP” value was 90%. Further, in assay [4], the Ki came out at 7 nM.

As to Ac-R[Orn]H[dF]RWE-OH (lactam 2-7) [Peptide No. 37: Ac-Arg-cyclo(Orn-His-D-Phe-Arg-Trp-Glu)-OH], in assay [1], the “Ec50 (nM), cAMP” value is 0.6 nM and the “Emax (%), cAMP” value amounted to 88%. In addition, in assay [2], the Ki was 12 nM.

Consider Ac-K[Orn]H[dF]RWE-NH2 (lactam 2-7) [Peptide No. 40: Ac-Lys-cyclo(Orn-His-D-Phe-Arg-Trp-Glu)-NH2], for which, in assay [1], the “Ec50 (nM), cAMP” value stood at 0.2 nM and the “Emax (%), cAMP” value was 114%. Moreover, in assay [2], the Ki is 3 nM.

B2: Peptide No. 41: Ac-Arg-cyclo(Orn-Ala-D-Phe-Arg-Trp-Glu)-NH2 (peptide)
peptide: Ac-R[Orn]A[dF]RWE-NH2
modifications: lactam 2-7
SMILES: CC(=O)N[C@@H](CCCNC(=N)N)C(=O)N[C@H]1CCCNC(=O)CC[C@@H](C(N)=O)NC(=O)[C@H](Cc2c[nH]c3ccccc23)NC(=O)[C@H](CCCNC(=N)N)NC(=O)[C@@H](Cc2ccccc2)NC(=O)[C@H](C)NC1=O
As for B2, in assay [1], the “Ec50 (nM), cAMP” value came out at 7 nM and the “Emax (%), cAMP” value was found to be 52%. The Ki in assay [2] was 19 nM.

For the molecule Ac-R[Orn]P[dF]RWE-NH2 (lactam 2-7) [Peptide No. 47: Ac-Arg-cyclo(Orn-Pro-D-Phe-Arg-Trp-Glu)-NH2], in assay [1], the “Ec50 (nM), cAMP” value is 6 nM and the “Emax (%), cAMP” value was determined as 54%. The Ki in assay [2] stood at 5 nM.

Ac-R[Orn]S(Bn)[dF]RWE-OH (lactam 2-7) [Peptide No. 48: Ac-Arg-cyclo(Orn-Ser(Bzl)-D-Phe-Arg-Trp-Glu)-OH]: in assay [1], the “Ec50 (nM), cAMP” value amounted to 3 nM and the “Emax (%), cAMP” value was 50%. Besides, the Ki in assay [2] was found to be 5 nM.

B3: Peptide No. 21: Ac-cyclo(Glu-Gln-D-Phe-Arg-Trp-Orn)-NH2 (peptide)
peptide: Ac-EQ[dF]RW[Orn]-NH2
modifications: lactam 1-6
SMILES: CC(=O)N[C@H]1CCC(=O)NCCC[C@@H](C(N)=O)NC(=O)[C@H](Cc2c[nH]c3ccccc23)NC(=O)[C@H](CCCNC(=N)N)NC(=O)[C@@H](Cc2ccccc2)NC(=O)[C@H](CCC(N)=O)NC1=O
In the case of B3, in assay [3], the “Ec50 (nM), cAMP” value was determined as 26 nM and the “Emax (%), cAMP” value is 49%. The Ki in assay [4] was found to be 74 nM.

B4: Asp...Lys analog of peptide No. 20: Ac-Arg-cyclo(Asp-Asn-D-Phe-Arg-Trp-Lys)-OH (peptide)
peptide: Ac-RDN[dF]RWK-OH
modifications: lactam 2-7
notes: also called Peptide Structure (Asp...Lys) in the row of No. 20
With B4, in assay [3], the “Ec50 (nM), cAMP” value came out at 81 nM and the “Emax (%), cAMP” value is 73%. Besides, in assay [4], the Ki was 100 nM.

B5: Asp...Lys analog of peptide No. 41: Ac-Arg-cyclo(Asp-Ala-D-Phe-Arg-Trp-Lys)-NH2 (peptide)
peptide: Ac-RDA[dF]RWK-NH2
modifications: lactam 2-7
notes: also called Peptide Structure (Asp...Lys) in the row of No. 41
For B5, in assay [1], the “Ec50 (nM), cAMP” value worked out at 37 nM and the “Emax (%), cAMP” value was 74%. The Ki in assay [2] was 19 nM.

B6: Asp...Lys analog of peptide No. 32: Ac-Arg-cyclo(Asp-Pro(4R-NH2)-D-Phe-Arg-Trp-Lys)-NH2 (peptide)
peptide: Ac-RD[Pro(trans-4-NH2)][dF]RWK-NH2
modifications: lactam 2-7
notes: also called Peptide Structure (Asp...Lys) in the row of No. 32
Consider B6, for which, in assay [3], the “Emax (%), cAMP” value worked out at 61%. For the same molecule, in assay [4], the Ki worked out at 5 nM.

B7: Asp...Lys analog of peptide No. 47: Ac-Arg-cyclo(Asp-Pro-D-Phe-Arg-Trp-Lys)-NH2 (peptide)
peptide: Ac-RDP[dF]RWK-NH2
modifications: lactam 2-7
notes: also called Peptide Structure (Asp...Lys) in the row of No. 47
For the molecule B7, in assay [1], the “Ec50 (nM), cAMP” value was 9 nM and the “Emax (%), cAMP” value stood at 43%. For the same molecule, the Ki in assay [2] is 17 nM.

B8: Asp...Lys analog of peptide No. 40: Ac-Lys-cyclo(Asp-His-D-Phe-Arg-Trp-Lys)-NH2 (peptide)
peptide: Ac-KDH[dF]RWK-NH2
modifications: lactam 2-7
SMILES: CC(=O)N[C@@H](CCCCN)C(=O)N[C@H]1CC(=O)NCCCC[C@@H](C(N)=O)NC(=O)[C@H](Cc2c[nH]c3ccccc23)NC(=O)[C@H](CCCNC(=N)N)NC(=O)[C@@H](Cc2ccccc2)NC(=O)[C@H](Cc2c[nH]cn2)NC1=O
notes: also called Peptide Structure (Asp...Lys) in the row of No. 40
For B8, in assay [1], the “Ec50 (nM), cAMP” value is 5 nM and the “Emax (%), cAMP” value turned out to be 85%. Besides, in assay [2], the Ki was 9 nM.

B9: Asp...Lys analog of peptide No. 45: Ac-D-Arg-cyclo(Asp-Gln-D-Phe-Arg-Trp-Lys)-NH2 (peptide)
peptide: Ac-[dR]DQ[dF]RWK-NH2
modifications: lactam 2-7
notes: also called Peptide Structure (Asp...Lys) in the row of No. 45
In the case of B9, the “Emax (%), cAMP” value in assay [1] was determined as 89%. The Ki in assay [2] came to 45 nM.

B10: Asp...Lys analog of peptide No. 21: Ac-cyclo(Asp-Gln-D-Phe-Arg-Trp-Lys)-NH2 (peptide)
peptide: Ac-DQ[dF]RWK-NH2
modifications: lactam 1-6
SMILES: CC(=O)N[C@H]1CC(=O)NCCCC[C@@H](C(N)=O)NC(=O)[C@H](Cc2c[nH]c3ccccc23)NC(=O)[C@H](CCCNC(=N)N)NC(=O)[C@@H](Cc2ccccc2)NC(=O)[C@H](CCC(N)=O)NC1=O
notes: also called Peptide Structure (Asp...Lys) in the row of No. 21
Take B10: in assay [3], the “Ec50 (nM), cAMP” value is 148 nM and the “Emax (%), cAMP” value was 35%. In addition, in assay [4], the Ki came to 99 nM.

As for Ac-RE[Orn][dF]RW[Orn]-NH2 (lactam 2-7) [Peptide No. 8: Ac-Arg-cyclo(Glu-Orn-D-Phe-Arg-Trp-Orn)-NH2], in assay [3], the “Ec50 (nM), cAMP” value came to 0.4 nM and the “Emax (%), cAMP” value is 95%. Besides, the Ki in assay [4] came to 9 nM.
